Source: patent US11673916B2, “Neuroprotective peptides and methods of their use” (University of Pittsburgh—Of the Commonwealth System of …, priority 2020, dated 2023)

Key:
VAPA = molecular target: T1, VAPA (Rattus norvegicus, UniProt Q9Z270); assay: Peptide spot array (far western) of binding to VAPA, cell-free; conditions: lysate of VAPA-transfected HEK293 cells (FIG. 11A)
T1 construct: pEGFP-N1-VAPA; 1-242 (Addgene #18874); host or cells: HEK293 cells; whole lysate at 1 mg/ml total protein overlaid on the peptide arrays
T1 sequence (Q9Z270 8-249): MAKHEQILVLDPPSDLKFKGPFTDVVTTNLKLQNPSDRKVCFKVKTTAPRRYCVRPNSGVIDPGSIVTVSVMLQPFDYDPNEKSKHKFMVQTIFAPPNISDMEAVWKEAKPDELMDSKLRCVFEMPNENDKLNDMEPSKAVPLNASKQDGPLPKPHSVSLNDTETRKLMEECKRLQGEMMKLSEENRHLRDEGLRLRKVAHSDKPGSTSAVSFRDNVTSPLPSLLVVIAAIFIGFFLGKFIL
Method: Standard 9-fluorenylmethoxy carbonyl chemistry was used to synthesize peptides and spot them onto Celluspots nitrocellulose disks prederivatized with a polyethylene glycerol spacer (Intavis), using the Respep peptide synthesizer. The peptides were spotted on 20 membranes fitted on microscope glass slides (Intavis) using an Intavis MultiPep robot. For hybridization and immunoblotting of arrays, Celluspots slides were washed in TBST (50 mM Tris-HCl, pH 7.4, 150 mM NaCl, 0.1% Tween 20) for 10 minutes, […] blocked for 1 hour at room temperature (RT) with gentle shaking in TBST containing 5% nonfat dry milk. Lysates from HEK293 cells transfected as before (Yeh et al., J Neurosci. 37: 5648-5658, 2017; Yeh et al., Proc Natl Acad Sci USA. 116: 15696-15607, 2019; Dustrude et al., Proc Natl Acad Sci USA. 113: E8443-E8452, 2016) with pEGFP-N1-VAPA; 1-242 (Addgene #18874) were made in 20 mM Tris, 50 mM NaCl, 2 mM MgCl2, 1% Tergitol, 0.5% sodium deoxycholate, 0.1% sodium dodecyl sulfate with protease (Cat #B14002, Bimake), phosphatase (Cat #B15002, Bimake) inhibitor cocktails and 5 U/ml of universal nuclease (Cat #88702, Thermofisher) added extemporaneously. The concentration of lysates was measured by BCA (Cat #23227, Thermofisher) and peptide arrays were incubated with 1 mg/ml of total protein overnight at 4° C. (Yeh et al., J Neurosci. 37: 5648-5658, 2017; Yeh et al., Proc Natl Acad Sci USA. 116: 15696-15607, 2019; Moutal et al., Pain. 158: 2203-2221, 2017). Peptide arrays were washed 3 times for 5 minutes at RT with TBST and incubated with the primary antibody anti-VAPA (RRID AB_2722707; UC Davis/NIH NeuroMab Facility) for 2 hours at RT with gentle shaking in TBST, 5% BSA. After washing with TBST, the membranes were incubated in secondary antibody (IRDye® 800CW goat anti-mouse IgG secondary antibody; RRID AB_621842; Li-Cor) for 45 minutes, washed 3 times for 5 minutes in TBST, and visualized by infrared fluorescence (Li-Cor). Four independent peptide spot arrays were used in this study. Fluorescence intensity was analyzed with Image studio (Li-Cor).
Kv2.1 and Kv2.2 channels are recruited to ER-PM junctions via C-terminal PRC-mediated interaction with vesicle-associated membrane protein (VAMP)-associated protein A/B (VAPA/B) (Kirmiz, et al., J Neurosci. 38: 7562-7584, 2018; Johnson et al., Proc Natl Acad Sci USA. 115: E7331-E7340, 2018; Johnson, et al., Channels (Austin). 13: 88-101, 2019). This process occurs at non-canonical FFAT binding motifs within the PRC domains of Kv2.1 and Kv2.2 (FIG. 7B), which are recruited to the FFAT binding domain on VAPA/B (Kirmiz, et al., J Neurosci. 38: 7562-7584, 2018; Johnson et al., Proc Natl Acad Sci USA. 115: E7331-E7340, 2018; Johnson, et al., Channels (Austin). 13: 88-101, 2019). […]

Kv2.1 surface clusters = molecular target: T2, Kv2.1 surface clusters (Rattus norvegicus, UniProt P15387); assay: Kv2.1 surface cluster density in live Kv2.1-GFP-transfected cortical neurons treated with TAT-linked peptides; assay type: cell-based; conditions: 10 μM
T2 construct: expressed in transfected cells; host or cells: primary rat cortical neurons (E16-17 Sprague-Dawley), Lipofectamine 2000
T2 sequence (P15387 1-857): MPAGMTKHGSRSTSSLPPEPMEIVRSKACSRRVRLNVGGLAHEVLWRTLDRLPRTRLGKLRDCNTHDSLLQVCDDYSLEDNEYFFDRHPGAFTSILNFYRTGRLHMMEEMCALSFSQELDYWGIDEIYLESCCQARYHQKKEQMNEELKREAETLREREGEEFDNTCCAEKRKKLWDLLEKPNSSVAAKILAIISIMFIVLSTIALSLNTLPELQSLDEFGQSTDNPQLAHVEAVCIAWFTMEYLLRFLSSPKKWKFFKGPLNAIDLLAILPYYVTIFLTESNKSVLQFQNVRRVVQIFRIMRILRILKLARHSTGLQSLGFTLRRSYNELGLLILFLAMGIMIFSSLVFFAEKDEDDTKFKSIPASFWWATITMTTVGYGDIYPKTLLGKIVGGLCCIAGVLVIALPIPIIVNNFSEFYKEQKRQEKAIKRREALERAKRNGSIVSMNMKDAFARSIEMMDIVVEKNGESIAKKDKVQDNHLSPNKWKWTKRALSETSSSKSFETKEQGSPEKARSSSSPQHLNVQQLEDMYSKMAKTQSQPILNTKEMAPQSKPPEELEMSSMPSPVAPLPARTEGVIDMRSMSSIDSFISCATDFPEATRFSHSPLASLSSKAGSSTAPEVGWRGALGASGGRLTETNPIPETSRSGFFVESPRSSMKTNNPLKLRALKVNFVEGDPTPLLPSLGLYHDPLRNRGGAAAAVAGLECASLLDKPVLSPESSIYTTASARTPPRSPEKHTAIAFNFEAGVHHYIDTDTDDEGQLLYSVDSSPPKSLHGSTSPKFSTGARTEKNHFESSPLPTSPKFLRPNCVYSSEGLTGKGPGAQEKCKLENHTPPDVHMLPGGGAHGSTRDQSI
Method: In vitro experiments utilized primary cortical neuronal cultures prepared from embryonic day 16-17 Sprague-Dawley rats of either sex in a protocol described previously (McCord et al., J Physiol (Lond). 592: 3511-3521, 2014). Timed-pregnant rats (Charles River Laboratories, Wilmington, Mass.) were sacrificed by CO2 inhalation. Embryonic cortices were dissociated with trypsin (0.6 mg/mL) and cells plated in sterile 6-well plates on poly-L-ornithine-coated glass coverslips at a density of 670,000 cells per well. Cytosine arabinoside (1-2 μM) was utilized to inhibit non-neuronal proliferation on day 14 in vitro (DIV); cultures were utilized at 21-25 DIV.
; Invitrogen, Carlsbad, Calif.). […]; Thermo Fisher Scientific, Waltham, Mass.). […]. Cultures were utilized 18-24 hours following transfection. cDNA amounts for each transfection experiment are described below for each figure. FIG. 1: 0.375 μg/well Kv2.1-GFP plasmid, 0.495 μg/well pcDNA3 vector plasmid, and 0.63 μg/well of either DP-1 or Sc-1, or Kv2.2 CT-expressing plasmid. FIGS. 2, 8, 9, 10, 12: 0.375 μg/well Kv2.1-GFP plasmid, 0.15 μg/well tdTomato plasmid (from Gerhart Ryffel; Addgene plasmid #30530), and 0.975 μg/well pcDNA3 vector plasmid.
To analyze Kv2.1 distribution in live primary cortical neurons, cells were transfected with both a tdTomato construct and a GFP-tagged Kv2.1 construct (O'Connell, et al., J Neurosci. 26: 9609-9618, 2006) and imaged on a Nikon A1+ confocal microscope (Nikon, Tokyo, Japan). Cells were chosen at random by looking only at the tdTomato signal (561 nm), in order to avoid bias. At least three separate culture dates were used per experiment and three coverslips were transfected per condition each time. For these experiments, “n” refers to the total number of cells imaged. Five to 15 optical sections (0.5 μm) capturing the cell surface were obtained of single cells at 60× magnification (Schulien et al., J Physiol (Lond). 594: 2647-2659, 2016), creating a maximum-intensity projection (MAX-IP) of Kv2.1-GFP distribution. To analyze Kv2.1 distribution in the cerebral cortex of fixed brain slices, 51-54 image fields were obtained at 60× magnification across 18 sections from three fixed mouse brains per treatment (total of 6 animals). Image fields were captured by first focusing on an area of superficial cortex closest to the cover glass. Next, 24 optical sections (0.5 μm) were obtained moving deeper into the tissue in order to produce a 12 μm maximum-intensity projection for analysis of Kv2.1 distribution. Laser power, HV (gain), offset, pinhole size, and all camera parameters were kept identical between all samples in a given experiment. Nikon Instruments Software Advanced Research (NIS-Elements AR) was utilized to analyze GFP-tagged Kv2.1 channel cluster distribution. For live images of transfected neurons, object count parameters were customized to define a Kv2.1 cluster as an area of high intensity GFP fluorescence (compared to background), measuring 0.05 μm^2 or larger (Schulien et al., J Physiol (Lond). 594: 2647-2659, 2016). Kv2.1 cluster density was calculated by normalizing the number of Kv2.1 clusters counted to the somatic area of each neuron (#Kv2.1 clusters/μm^2). Due to high variability in GFP-Kv2.1 expression between individual neurons, intensity thresholding required cell-specific local-background subtraction. In each neuron analyzed, two populations on Kv2.1-GFP expression were first noted—(a) highly localized signals of clustered Kv2.1 channels, and (b) diffuse background staining that represents freely-dispersed, conducting Kv2.1 channels on the plasma membrane. A small region of interest (ROI) within region (b) was set as the background subtraction standard of the image, creating an optimal signal-to-noise ratio for clustered Kv2.1 channels. […]

[1] = 2 hour treatment, mean±SEM (FIG. 11B)
[2] = 24 hour treatment, mean±SEM (FIG. 11C)

Substance	binding to VAPA in peptide spot array (VAPA)	mean Kv2.1 surface cluster density (Kv2.1 surface clusters; [1])	mean Kv2.1 surface cluster density (Kv2.1 surface clusters; [2])
EFFDAPE [positive control peptide, a canonical FFAT motif]	strong VAPA binding		
SFISCAT [non-canonical FFAT motif of Kv2.1]	no binding		
SFTSCAT [non-canonical FFAT motif of Kv2.2]	no binding		
SIDSFTS [DP-2, seven amino acid declustering peptide from Kv2.2 CT]	no binding		
YGRKKRRQRRRDEEFAP [TAT-FFATSc, scramble control peptide of TAT-FFAT]		0.14±0.02 #Kv2.1 clusters/μm^2 of neuronal soma	0.20±0.01 #Kv2.1 clusters/μm^2 of neuronal soma
YGRKKRRQRRREFFDAPE [TAT-FFAT, TAT-linked derivative of the canonical FFAT motif]		0.15±0.03 #Kv2.1 clusters/μm^2 of neuronal soma	0.19±0.02 #Kv2.1 clusters/μm^2 of neuronal soma
